Experimental data from patent US20170058005A1 (priority 2014, published 2017).
Where no end group is shown, it is not given here.

Experiments:
[1] = biological target: DRB1*1501 (DR15) (Homo sapiens, UniProt P01903+P01911); assay type: binding
[2] = biological target: DRB1*0301 (DR3) (Homo sapiens, UniProt P01903+P01911, A100K/A102G/A103R/A169T/F55Y/I96L/K41T/L162R/M171V/P40S/Q125H/Q178H/Q39Y/R42S/S66N/T106N/T262R/W38E/Y61H); assay type: binding
[3] = biological target: DRB1*1301 (DR13) (Homo sapiens, UniProt P01903+P01911, A100E/A169T/K41T/L162R/M171V/P40S/Q125H/Q178H/Q39Y/Q99D/R42S/S66N/T262R/W38E/Y61H); assay type: binding
[4] = biological target: DRB1*1101 (DR11) (Homo sapiens, UniProt P01903+P01911, A100R/A169T/A87E/I96F/K41T/L162R/M171V/P40S/Q125H/Q178H/Q39Y/Q99D/R42S/S66Y/T262R/V115G/W38E); assay type: binding
[5] = biological target: DRB1*0701 (DR7) (Homo sapiens, UniProt P01903+P01911, A100R/A102G/A103Q/D57E/D86V/E43K/F76Y/K127E/L162R/M171V/P40G/Q125H/Q99D/R33Q/R42Y/R54Q/S133A/S66F/T210M/V115G/Y107V/Y59L/Y89S); assay type: binding
[6] = biological target: DRB1*0401 (DR4) (Homo sapiens, UniProt P01903+P01911, A100K/A169T/F76Y/I96L/K127E/L162R/M171V/N62H/P40V/Q125Y/R42H/S133A/S149N/S66Y/V115G/V209L/W38E); assay type: binding
[7] = biological target: DRB1*0101 (DR1) (Homo sapiens, UniProt P01903+P01911, A100R/D57E/F55L/F60I/F76Y/I96L/L162R/M171V/P40L/Q125E/R42F/V115G/Y59C); assay type: binding
[8] = tested on: CD4^+ T cells of HLA class II transgenic mice; assay type: cell-based

Row | Sequence | Relative binding affinity of peptide to HLA-DR molecules, DR15 [1] | Relative binding affinity of peptide to HLA-DR molecules, DR3 [2] | Relative binding affinity of peptide to HLA-DR molecules, DR13 [3] | Relative binding affinity of peptide to HLA-DR molecules, DR11 [4] | Relative binding affinity of peptide to HLA-DR molecules, DR7 [5] | Relative binding affinity of peptide to HLA-DR molecules, DR4 [6] | Relative binding affinity of peptide to HLA-DR molecules, DR1 [7] | CD4 T cell response in LF immunized HLA transgenics [8] | HLA-restriction based on CD4 T cell response class II HLA transgenics after priming with LF [8] | IC50 ([3]; read-out: IC50 of reference peptide) [nM]
1 | AVDDYAGYLLDKNQSDLVTN | 0.1 | 42 | >2 733 | 55 | 1,789 | 10 | 1,380 | HLA-DR4 and HLA-DR15 restricted | DR4, DR15 | –
2 | DTGGLIDSPSINLDVRKQYK | 130 | 0.3 | 8 | 179 | 15 | 935 | 866 | – | DR15 | –
3 | EIMKHIVKIEVKGEEAVKKE | 329 | 50 | 19 | 4 | 249 | 567 | 243 | – | DQ8 | –
4 | IGLEIKDVQIIKQSEKEYIRIDAKVVP | 1 | 2 | 24 | 73 | 7 | 919 | 1 | – | DR1, DR15 | –
5 | KELLNRIQVDSSNPLSEKEK | 1 | 1 | 1,714 | 274 | 36 | 0 | 146 | – | DQ8 | –
6 | KLITFNVHNRYASNIVESAY | 5 | 0.4 | 0.5 | 7 | 72 | 3 | 35 | – | DR1, DR4 | –
7 | LLFTNQLKEHPTDFSVEFLE | 193 | >76 | >172 | 148 | 51 | 6 | 909 | – | DQ8 | –
8 | NEQEINLSLEELKDQRMLSR [LF 281-300] | – | – | – | – | – | – | – | did not induce a response in any of the HLA transgenics | – | –
9 | PEAFNYMDKFNEQEINLSLE | 463 | >76 | >172 | 2 | 42 | 2 | 2156 | – | DQ8 | –
10 | PKSKIDTKIQEAQLNINQEW [LF584-603] | – | – | – | – | – | – | – | did not induce any response in any of the HLA transgenics | – | –
11 | RNKTQEEHLKEIMKHIVKIE | >2 184 | >76 | 8 | 2 | 77 | >1 539 | 4810 | – | DQ8 | –
12 | SEGFIHEFGHAVDDYAGYLL | 0.04 | >1 000 | >2 733 | 849 | 131 | 46 | 5 | immunodominant epitopes in HLA-DR15 transgenics | DR15 | –
13 | SKKFIDIFKEEGSNLTSYGR | 1 | 474 | 1,225 | 0.4 | 302 | 0.2 | 4 | HLA-DR4 and HLA-DR15 restricted | DR4 | –
14 | TERVRLVTRHIYNREE [B1 21-36, reference compound] | – | – | – | – | – | – | – | – | – | 37
15 | VLVIQSSEDYVENTEKALNV | 958 | 82 | >172 | 168 | 66 | 29 | 1702 | – | DR1 | –
16 | YGKDALLHEHYVYAKEGYEP | 4000 | >76 | 6 | 9 | 441 | 168 | 199 | – | DQ8 | –
17 | YLVDGNGRFVFTDITLPNIA | 2 | 0.3 | >2 733 | 45 | 19 | 0.3 | 123 | elicited a T cell response in a single HLA transgenic strain | DR4 | –
